Values quoted from earlier work, collected in PMC7596073.
“And” between values parts separate entries of the source, which are not always exact repeats. Equal values may be shown once.

Biological target: IL-18BP (Homo sapiens) (UniProt O95998)
Sequence (O95998 31-194): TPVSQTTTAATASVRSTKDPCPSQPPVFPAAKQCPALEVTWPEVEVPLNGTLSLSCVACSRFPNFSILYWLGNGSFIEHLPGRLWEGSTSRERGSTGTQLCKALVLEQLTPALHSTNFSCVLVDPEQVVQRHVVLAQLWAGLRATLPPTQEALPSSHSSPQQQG

Chain of IL-18 (Q14116 37-193): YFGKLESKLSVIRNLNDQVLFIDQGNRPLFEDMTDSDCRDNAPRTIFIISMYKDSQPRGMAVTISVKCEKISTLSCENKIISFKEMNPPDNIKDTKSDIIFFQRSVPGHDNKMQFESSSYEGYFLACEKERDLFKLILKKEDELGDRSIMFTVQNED

IL-18 (from UniProt Q14116)
Kd: 0.04 nM and 0.4 nM
